From patent publication US20230183713A1, “SITE-SPECIFIC RECOMBINASES FOR EFFICIENT AND SPECIFIC GENOME EDITING” (TECHNISCHE UNIVERSITÄt DRESDEN, published 2023)

Columns and labels:
[1] = target: T1, Cre recombinase monomer with E176M mutation
T1 chain: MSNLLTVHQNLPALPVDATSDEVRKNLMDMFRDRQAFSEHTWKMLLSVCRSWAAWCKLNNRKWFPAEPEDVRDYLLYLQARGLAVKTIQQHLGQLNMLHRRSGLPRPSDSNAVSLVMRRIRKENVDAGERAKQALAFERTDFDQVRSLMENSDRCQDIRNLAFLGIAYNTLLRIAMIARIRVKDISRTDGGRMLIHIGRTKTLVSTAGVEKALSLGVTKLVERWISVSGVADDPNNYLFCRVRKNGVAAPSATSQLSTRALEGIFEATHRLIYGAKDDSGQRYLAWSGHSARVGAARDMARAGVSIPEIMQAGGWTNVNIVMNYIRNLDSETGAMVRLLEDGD

[2] = target: T2, Cre recombinase monomer with E176V mutation
T2 chain: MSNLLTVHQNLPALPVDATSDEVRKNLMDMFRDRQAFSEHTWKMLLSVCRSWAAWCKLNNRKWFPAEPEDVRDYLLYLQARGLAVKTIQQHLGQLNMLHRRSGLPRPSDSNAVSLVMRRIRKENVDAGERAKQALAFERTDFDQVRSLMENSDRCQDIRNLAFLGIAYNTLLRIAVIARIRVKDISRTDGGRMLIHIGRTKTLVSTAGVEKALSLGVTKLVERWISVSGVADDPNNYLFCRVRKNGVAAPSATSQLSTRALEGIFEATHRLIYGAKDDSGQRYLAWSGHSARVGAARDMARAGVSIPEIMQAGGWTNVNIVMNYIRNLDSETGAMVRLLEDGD

[3] = target: T3, Cre recombinase monomer with E176I mutation
T3 chain: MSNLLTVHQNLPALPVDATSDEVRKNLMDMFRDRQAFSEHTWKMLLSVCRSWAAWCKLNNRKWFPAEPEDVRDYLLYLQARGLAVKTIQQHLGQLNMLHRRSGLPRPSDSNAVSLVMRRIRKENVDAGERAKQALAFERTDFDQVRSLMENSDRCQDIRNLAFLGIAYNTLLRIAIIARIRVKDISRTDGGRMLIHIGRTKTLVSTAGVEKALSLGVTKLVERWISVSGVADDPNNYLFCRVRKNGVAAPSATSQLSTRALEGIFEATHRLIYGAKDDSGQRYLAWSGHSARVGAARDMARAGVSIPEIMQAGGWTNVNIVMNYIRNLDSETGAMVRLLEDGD

[4] = target: T4, Cre recombinase monomer with K201Q mutation
T4 chain: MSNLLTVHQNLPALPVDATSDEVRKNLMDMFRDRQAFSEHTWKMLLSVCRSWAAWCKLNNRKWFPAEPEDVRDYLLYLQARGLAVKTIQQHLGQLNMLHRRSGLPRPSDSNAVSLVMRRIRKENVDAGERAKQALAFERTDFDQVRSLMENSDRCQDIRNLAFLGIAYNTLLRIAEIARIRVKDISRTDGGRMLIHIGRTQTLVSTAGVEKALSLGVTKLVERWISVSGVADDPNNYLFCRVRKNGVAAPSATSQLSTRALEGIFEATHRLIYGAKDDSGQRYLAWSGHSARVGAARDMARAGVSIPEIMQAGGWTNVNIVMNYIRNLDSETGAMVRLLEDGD

[5] = target: T5, Cre recombinase monomer with E176W mutation
T5 chain: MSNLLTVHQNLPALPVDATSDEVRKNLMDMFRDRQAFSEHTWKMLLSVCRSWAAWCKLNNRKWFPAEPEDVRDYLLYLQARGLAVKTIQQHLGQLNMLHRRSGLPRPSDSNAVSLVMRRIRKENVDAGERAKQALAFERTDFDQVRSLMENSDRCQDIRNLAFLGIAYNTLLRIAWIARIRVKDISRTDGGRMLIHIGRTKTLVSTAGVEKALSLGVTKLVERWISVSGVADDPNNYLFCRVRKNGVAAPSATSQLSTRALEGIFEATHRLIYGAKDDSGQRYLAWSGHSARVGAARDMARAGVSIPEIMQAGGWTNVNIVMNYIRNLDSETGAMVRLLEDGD

[6] = target: T6, Cre recombinase monomer with E176Y mutation
T6 chain: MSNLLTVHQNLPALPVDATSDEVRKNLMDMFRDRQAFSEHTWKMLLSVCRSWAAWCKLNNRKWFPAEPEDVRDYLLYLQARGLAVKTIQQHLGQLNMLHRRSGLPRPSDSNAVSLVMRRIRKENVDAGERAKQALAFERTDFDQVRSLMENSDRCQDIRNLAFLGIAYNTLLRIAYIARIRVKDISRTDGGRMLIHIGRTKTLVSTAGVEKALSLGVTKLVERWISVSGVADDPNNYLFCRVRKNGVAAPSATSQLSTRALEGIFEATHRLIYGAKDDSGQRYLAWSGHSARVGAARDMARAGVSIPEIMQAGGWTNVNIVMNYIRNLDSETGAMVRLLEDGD

[7] = target: T7, Cre recombinase monomer with Q311R mutation
T7 chain: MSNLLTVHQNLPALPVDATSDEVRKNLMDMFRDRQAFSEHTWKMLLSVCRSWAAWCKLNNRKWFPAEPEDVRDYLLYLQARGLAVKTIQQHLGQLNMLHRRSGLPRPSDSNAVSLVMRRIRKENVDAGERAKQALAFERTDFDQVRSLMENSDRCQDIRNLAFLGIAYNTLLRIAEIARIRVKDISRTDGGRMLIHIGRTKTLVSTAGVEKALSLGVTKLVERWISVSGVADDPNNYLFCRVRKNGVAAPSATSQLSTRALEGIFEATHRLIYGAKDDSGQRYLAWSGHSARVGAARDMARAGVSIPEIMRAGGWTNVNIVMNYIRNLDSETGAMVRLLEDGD

[8] = target: T8, Cre recombinase monomer with Y324T mutation
T8 chain: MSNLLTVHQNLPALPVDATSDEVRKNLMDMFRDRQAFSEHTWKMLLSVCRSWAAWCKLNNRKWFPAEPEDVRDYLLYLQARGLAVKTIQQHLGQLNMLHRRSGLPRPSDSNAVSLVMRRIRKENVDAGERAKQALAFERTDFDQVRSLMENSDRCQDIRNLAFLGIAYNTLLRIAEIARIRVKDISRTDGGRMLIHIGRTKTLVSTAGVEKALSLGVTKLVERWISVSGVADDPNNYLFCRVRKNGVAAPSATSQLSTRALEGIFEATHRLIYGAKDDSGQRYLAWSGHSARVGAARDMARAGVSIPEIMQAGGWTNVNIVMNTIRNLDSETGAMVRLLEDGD

[9] = target: T9, Cre recombinase monomer with K201Y mutation
T9 chain: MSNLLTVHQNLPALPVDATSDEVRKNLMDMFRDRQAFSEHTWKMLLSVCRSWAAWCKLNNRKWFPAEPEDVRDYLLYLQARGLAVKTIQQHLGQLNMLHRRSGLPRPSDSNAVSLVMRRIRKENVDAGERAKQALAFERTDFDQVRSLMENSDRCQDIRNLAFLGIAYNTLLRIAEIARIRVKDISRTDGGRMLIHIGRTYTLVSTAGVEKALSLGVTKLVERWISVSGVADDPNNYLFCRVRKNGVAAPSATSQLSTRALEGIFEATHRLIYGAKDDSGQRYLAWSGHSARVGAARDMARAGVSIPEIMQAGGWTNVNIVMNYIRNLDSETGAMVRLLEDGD

B1: Cre recombinase monomer with R173F mutation (protein)
chain: MSNLLTVHQNLPALPVDATSDEVRKNLMDMFRDRQAFSEHTWKMLLSVCRSWAAWCKLNNRKWFPAEPEDVRDYLLYLQARGLAVKTIQQHLGQLNMLHRRSGLPRPSDSNAVSLVMRRIRKENVDAGERAKQALAFERTDFDQVRSLMENSDRCQDIRNLAFLGIAYNTLLFIAEIARIRVKDISRTDGGRMLIHIGRTKTLVSTAGVEKALSLGVTKLVERWISVSGVADDPNNYLFCRVRKNGVAAPSATSQLSTRALEGIFEATHRLIYGAKDDSGQRYLAWSGHSARVGAARDMARAGVSIPEIMQAGGWTNVNIVMNYIRNLDSETGAMVRLLEDGD
Median dimer activity (recombination on loxP) [1]: 38%
Median dimer activity (recombination on loxP) [2]: 82%
Median dimer activity (recombination on loxP) [3]: 25%
Median dimer activity (recombination on loxP) [4]: 39%
Median dimer activity (recombination on loxP) [5]: 30%
Median dimer activity (recombination on loxP) [6]: 40%
Median dimer activity (recombination on loxP) [7]: 84%

B2: Cre recombinase monomer with R173G mutation (protein)
chain: MSNLLTVHQNLPALPVDATSDEVRKNLMDMFRDRQAFSEHTWKMLLSVCRSWAAWCKLNNRKWFPAEPEDVRDYLLYLQARGLAVKTIQQHLGQLNMLHRRSGLPRPSDSNAVSLVMRRIRKENVDAGERAKQALAFERTDFDQVRSLMENSDRCQDIRNLAFLGIAYNTLLGIAEIARIRVKDISRTDGGRMLIHIGRTKTLVSTAGVEKALSLGVTKLVERWISVSGVADDPNNYLFCRVRKNGVAAPSATSQLSTRALEGIFEATHRLIYGAKDDSGQRYLAWSGHSARVGAARDMARAGVSIPEIMQAGGWTNVNIVMNYIRNLDSETGAMVRLLEDGD
Median dimer activity (recombination on loxP) [8]: 32%
Median dimer activity (recombination on loxP) [9]: 95%
Median dimer activity (recombination on loxP) [7]: 95%
